Measurements taken from US20240189392A1.
Positions of bridges follow the written chain, without caps; N, C: chain ends. Chains are numbered I, II in the order given. No end group written: not given here.

B1: wild-type relaxin (human relaxin 2) (ligand)
chain 1: QLYSALANKCCHVGCTKRSLARFC
chain 2: DSWMEEVIKLCGRELVRAQIAICGMSTWS
modifications: disulfide I:10-I:15, I:11-II:11, I:24-II:23
B2: RLX-A-AQ1-20KPEG (ligand)
chain 1: XLYSALANKCCHVGCTKRSLARFC
chain 2: ASWMEEVIKLCGRELVRAQIAICGMSTWS
modifications: here or on the partner: pACF (para-acetylphenylalanine) at position 1 of the A chain, linked to a 20 kDA PEG via an oxime linkage

Target: human RXFP2 (human), Q8WXD0
Sequence (Q8WXD0 whole entry): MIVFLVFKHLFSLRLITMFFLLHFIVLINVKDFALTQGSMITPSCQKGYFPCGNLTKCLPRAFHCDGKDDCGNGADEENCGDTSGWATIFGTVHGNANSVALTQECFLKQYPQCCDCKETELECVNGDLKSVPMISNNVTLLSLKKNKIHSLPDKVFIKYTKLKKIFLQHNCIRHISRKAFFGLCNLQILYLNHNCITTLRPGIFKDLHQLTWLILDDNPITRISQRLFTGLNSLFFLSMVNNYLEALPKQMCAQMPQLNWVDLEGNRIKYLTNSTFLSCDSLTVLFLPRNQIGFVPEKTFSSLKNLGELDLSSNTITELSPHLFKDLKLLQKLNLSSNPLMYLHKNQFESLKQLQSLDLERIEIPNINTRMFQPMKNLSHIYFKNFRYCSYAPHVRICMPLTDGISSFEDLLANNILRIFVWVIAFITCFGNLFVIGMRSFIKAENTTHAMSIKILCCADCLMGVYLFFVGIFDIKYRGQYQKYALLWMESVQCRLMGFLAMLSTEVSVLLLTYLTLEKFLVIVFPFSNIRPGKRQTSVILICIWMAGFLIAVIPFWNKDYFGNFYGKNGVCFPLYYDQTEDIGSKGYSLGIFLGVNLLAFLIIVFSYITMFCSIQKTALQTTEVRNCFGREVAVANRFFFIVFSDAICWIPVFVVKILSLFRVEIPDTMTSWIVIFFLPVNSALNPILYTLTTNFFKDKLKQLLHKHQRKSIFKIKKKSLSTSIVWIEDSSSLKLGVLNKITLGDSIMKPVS
Experiment: cell-based or functional assay

| Binder | fold less potent than INSL3, cAMP assay, human RXFP2/CHO-K1 cells [fold] | Maximal cAMP stimulation by RLX-A-AQ1-20KPEG compared to WT-RLX (percent difference), AVG, hRXFP2 [%] | Potency Ratio (RLX-A-AQ1-20KPEG/WT-RLX), cAMP assay, human RXFP2/CHO-K1 cells [fold] | RLX-A-AQ1-20KPEG Potency Ratio (hRXFP 1-1.0), cAMP assay | cAMP Assay EC50 (nM), human RXFP2/CHO-K1 cells [nM] |
| --- | --- | --- | --- | --- | --- |
| B1 | 10 |  |  |  |  |
| B2 |  | 99 | 32 | 54 | 174 |
